Results published in PMC10582422, “Alzheimer's Progenitor Amyloid‐β Targets and Dissolves Microbial Amyloids and Impairs Biofilm Function” (Advanced Science, 2023).

Assays:
Aβ = details: cited from earlier work
Text: Amyloid‐β (Aβ) is a peptide generated from the proteolytic cleavage of amyloid precursor protein (APP) expressed on the membrane and synapses of neurons. Based on the combination of enzymes that cleave APP, i.e., α‐, β‐ or γ‐secretase, the resulting Aβ can be a 40 (Aβ40) or 42 (Aβ42) residue peptide that is intrinsically disordered in structure.^[ [1] ^] Different environmental factors, familial mutations or localized concentrations of Aβ can trigger the aggregation of Aβ into oligomers. The oligomers can subsequently assemble into long twisted fibrils characterized by a so‐called amyloid fold ...

FapC fibrils [1] = test: ThT assay: disintegration of preformed FapC fibrils; assay type: biochemical, P. aeruginosa; details: 1.8 – 15 µM against 50 µM FapC; ThT 72 h
Method: FapC and CsgA fibrils were pre‐incubated with 50 µM of Thioflavin T dye for 3 h. […] The instrument was set to agitate the plate for 5 s before every reading. […]

FapC fibrils [2] = test: TEM of FapC fibrils incubated with peptide; assay type: biochemical, P. aeruginosa; details: TEM at 1, 2 and 3 weeks
Text: The samples were blotted with filter paper and grids were blotted twice with deionized water and then a drop of 1% uranyl acetate was placed on the grids for 30 s for negative staining. […] […] TEM grids were imaged with a Hitachi HT7700 TEM operating at 120 kV.

E. coli K‐12 = test: Antimicrobial sensitivity assay (MBEC peg biofilm), K-12; assay type: cell-based; details: combined with Pen
Method: (§1) Microbial culture of K12 and PAO1 were added to 96‐well plates at OD 0.3 and incubated overnight at the static condition at 37 °C with Minimum Biofilm Eradication Concentration (MBEC) peg lids (Innovotech, Edmonton, Canada) where biofilms were formed on the pegs. […] After overnight incubation in the challenge plate, peg lids were removed, and swabs of the culture were picked from the pegs and streaked onto LB agar plates. The plates were incubated overnight at 37 °C and surviving colonies were confirmed by visual inspection and counted with the software Promega Colony Counter.

P. aeruginosa PAO1 = test: Antimicrobial sensitivity assay (MBEC peg biofilm), PAO1; assay type: cell-based; details: combined with Pen
Method: as §1

Zeta potential = assay type: physicochemical; details: Malvern Zetasizer Nano; fibrils
CsgA fibrils [3] = target: T1, CsgA fibrils (Escherichia coli, UniProt P28307); assay type: biochemical, E. coli; details: DLS, incubated without Aβ, as for TEM; n = 3
T1 construct: made in house; host or cells: E. coli
Method: (§2) Quartz cells with low volume capacity (100 µL) were used and measurements were performed using a Malvern Zetasizer Nano Series running DTS software and using a 4 mW He−Ne laser operating at a wavelength of 633 nm and equipped with an avalanche photodiode (APD) detector. The scattered light was detected at an angle of 173°.

CsgA fibrils [4] = target: T1, CsgA fibrils; assay type: biochemical, E. coli
Method: (§3) The percentage secondary structure was calculated by the CD data via Dichroweb analysis with parameters of Contin/reference set 4.

Caco‐2 cells = test: Cell adhesion of FapC and CsgA amyloids to Caco-2 cells; assay type: cell-based; details: Alexa647-labelled, 10 µM, 24 h
Method: In comparison, FapC or CsgA amyloids alone (10 µM), labelled with Alexa647, were incubated with the cells under the same conditions. […] The cells were incubated for additional 24 h. All the cells in this experiment were fixed in 4% PFA, washed with PBS and then subjected to confocal imaging as described above. The size and number of the FapC or CsgA amyloids attached to the membrane of Caco‐2 cells were quantified from the images using Fiji ImageJ software.

FapC fibrils [5] = test: CD spectroscopy of FapC fibrils; assay type: biochemical, P. aeruginosa
Method: as §3

FapC fibrils [6] = test: DLS size of FapC fibrils; assay type: biochemical, P. aeruginosa; details: incubated without Aβ, as for TEM, n = 3
Method: as §2

FapC monomers = test: Self-seeding / fibrillization of FapC monomers (ThT, TEM); assay type: biochemical, P. aeruginosa; details: FapC monomers 15 µM
[7] = CD, Dichroweb Contin/reference set 4, 50 µM

T1 sequence (P28307 21-151): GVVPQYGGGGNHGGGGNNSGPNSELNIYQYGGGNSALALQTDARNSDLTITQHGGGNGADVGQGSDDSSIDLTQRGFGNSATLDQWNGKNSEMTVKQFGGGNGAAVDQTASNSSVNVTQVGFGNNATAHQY

Molecule: Solanezumab: monoclonal antibody in clinical trials
- efficacy in phase 3 trials (Aβ; mild form of Alzheimer's disease, ref [6], [7]): some efficacy but not much promise in phase 3 trials

Molecule: IAPP: human islet amyloid polypeptide (KCNTATCATQRLANFLVHSSNNFGAILSSTNVGSNTY; Islet amyloid polypeptide; UniProt P10997 34-70, looked up)
- disintegration of FapC amyloids by IAPP or aSyn (FapC fibrils [1]): did not show any disintegration of FapC amyloids
- TEM remodeling of FapC fibrils by IAPP or aSyn monomers (FapC fibrils [2]): no remodeling effect was observed for FapC fibrils

Molecule: [H]/N=C(/N)N[C@H]1[C@H](O)[C@@H](O)[C@H](O[C@@H]2O[C@@H](C)[C@](O)(C=O)[C@H]2O[C@@H]2O[C@@H](CO)[C@H](O)[C@@H](O)[C@@H]2NC)[C@@H](N/C(N)=N\[H])[C@@H]1O [Strep]
- minimum concentration with slight antimicrobial effect (Strep), K-12 (E. coli K‐12): 5e-06 µg/mL
- minimum concentration with slight antimicrobial effect (Strep), PAO1 (P. aeruginosa PAO1): 5e-06 µg/mL

Molecule: CsgA: CsgA prepared recombinantly in E. coli; major subunit of the curli protein
- zeta potential (Zeta potential): 37 mV
- hydrodynamic radius of CsgA fibrils, without Aβ (CsgA fibrils [3]): ≈ 1500 nm
- CD negative peak, CsgA fibrils alone (CsgA fibrils [4]; 50 µM CsgA without Aβ, 48 h): 214 nm
- β‐sheet content of CsgA fibrils, without Aβ (CsgA fibrils [4]; [7]): 42%
- size of amyloid aggregates attached to Caco-2 membrane, without Aβ (Caco‐2 cells): ≈ 30 µm

B1: FapC: FapC prepared recombinantly in E. coli; amyloid protein secreted by P. aeruginosa (protein, UniProt Q9I2F0 25-340, looked up)
Functional amyloid subunit …: GNEGGWHPPKPNPQSNNKGGATALVVDTQQNYNNKVSNFGTLNNASVSGSIKDASGNVGVNVAAGDNNQQANAAALASADASFVFGTATASTSVLQSGYGNTLNNYSNPNTASLSNSANNVSGNLGVNVAAGNFNQQKNDLAAAVSNGQYSTAGSAASQTSTGNTTVNSANYAYGGTYVSLKLNADGSYKGTSDQIGDVYLDTWEGQTHPGGSNTGHIDVDSQAQGAKDLNHDGGAFAFKEKGDVDLKGTVSGFIPAIVGFKTPVTNNASLSNSLQNVSGNVGVNIAAGGGNQQSNSLSIAAGCSSCPAGGESLGF
- zeta potential (Zeta potential): 47 mV
- CD negative peak, FapC fibrils alone (FapC fibrils [5]; 50 µM FapC without Aβ, 48 h): 214 nm
- random coil content of FapC fibrils, without Aβ (FapC fibrils [5]; [7]): 22%
- β‐sheet content of FapC fibrils, without Aβ (FapC fibrils [5]; [7]): 47%
- hydrodynamic radius of FapC fibrils, without Aβ (FapC fibrils [6]): ≈ 550 nm
- size of amyloid aggregates attached to Caco-2 membrane, without Aβ (Caco‐2 cells): ≈ 30 µm

B2: sonicated FapC: Sonicated FapC seeds used as control (protein, UniProt Q9I2F0 25-340, looked up)
Functional amyloid subunit …: B1 Functional amyloid subunit …
modifications: sonicated fibril seeds
notes: Sonicated FapC seeds used as control
- self-seeding of FapC monomers by sonicated seeds (FapC monomers): a significant increase in ThT kinetics was observed

B3: Lecanemab: humanized IgG1 monoclonal antibody that binds with soluble protofibrils of Aβ (antibody, chains of the INN, looked up, V domains shown)
VH: EVQLVESGGGLVQPGGSLRLSCSASGFTFSSFGMHWVRQAPGKGLEWVAYISSGSSTIYYGDTVKGRFTISRDNAKNSLFLQMSSLRAEDTAVYYCAREGGYYYGRSYYTMDYWGQGTTVTVSS
VL: DVVMTQSPLSLPVTPGAPASISCRSSQSIVHSNGNTYLEWYLQKPGQSPKLLIYKVSNRFSGVPDRFSGSGSGTDFTLRISRVEAEDVGIYYCFQGSHVPPTFGPGTKLEIK
- efficacy in phase 2 clinical trials (Aβ; early onset Alzheimer's disease, ref [8]): limited improvement in cognition and reduced Aβ burden
